Laboratory results from PMC3907554, “Crystal Structure of an (R)-Selective ω-Transaminase from Aspergillus terreus” (PLoS ONE, 2014).

Biological target: the molecule itself
Experiment: crystal structure; X-ray, 1.63 Å, space group C222(1); crystals from Morpheus condition H02 (10% w/v PEG 8000, 20% v/v ethylene glycol, amino acid mix, 0.1 M MES/imidazole pH 6.5), 18°C; two chains in the asymmetric unit

B1: (R)-selective ω-transaminase from Aspergillus terreus (enzyme, UniProt Q0C8G1 1-325, looked up)
chain: MASMDKVFAGYAARQAILESTETTNPFAKGIAWVEGELVPLAEARIPLLDQGFMHSDLTYDVPSVWDGRFFRLDDHITRLEASCTKLRLRLPLPRDQVKQILVEMVAKSGIRDAFVELIVTRGLKGVRGTRPEDIVNNLYMFVQPYVWVMEPDMQRVGGSAVVARTVRRVPPGAIDPTVKNLQWGDLVRGMFEAADRGATYPFLTDGDAHLTEGSGFNIVLVKDGVLYTPDRGVLQGVTRKSVINAAEAFGIEVRVEFVPVELAYRCDEIFMCTTAGGIMPITTLDGMPVNGGQIGPITKKIWDGYWAMHYDAAYSFEIDYNERN
modifications: pyridoxal 5'-phosphate (PLP) covalently bound to Lys180 (internal aldimine), present in part; the other state is free Lys180 with a PLP-amino acid adduct (ligand code PGD)
notes: ω-(R)-transaminase from Aspergillus terreus, gene codon-optimized for E. coli; Cloned through NcoI and XhoI into pET28a(+); also called AT-ωTA; (R)-ω-transaminase; source: E. coli BL21-Gold(DE3), pET28a(+), purified (Ni Sepharose, SEC on Superdex 200); not shown: His-Tag, C-terminal, kept
stoichiometry N: 2
